According to patent US20150140683A1:

Key:
[1] = target: antibody captured on the human Fab capture surface (unnamed IgG); test: SPR (BIAcore), antibody captured via human Fab capture kit, 50 nM fusion polypeptide injected, 25 C
[2] = target: antibody captured on the human Fab capture surface (unnamed IgG); test: SPR (BIAcore), antibody captured via human Fab capture kit, 50 nM receptor injected, 25 C

Row | response units [1] [RU] | response units [2] [RU] | Substance
1 | > 100 | – | FcgammaRIIIaV158-Avi-IgA Protease-Fc LALA P329G fusion polypeptide (Fc fusion)
2 | – | 40 | FcgammaRIIIaV158 (intact HisAvi-tag comprising functional variant of FcgRIIIa) (receptor)
